Reference: publication PMC11239676 (2024)

T1: 15N-labelled NHR4 MYND domain of RUNX1T1 (UniProt Q06455 510-559, 15N-labelled)
T1 chain: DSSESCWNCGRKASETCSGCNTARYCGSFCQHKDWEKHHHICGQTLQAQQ


What was measured:
[1] = molecular target: T1, 15N-labelled NHR4 MYND domain of RUNX1T1; assay: NMR; pH 6
[2] = molecular target: T1, 15N-labelled NHR4 MYND domain of RUNX1T1; assay: NMR; pH 7.5

Row | Kd [1] [µM] | Kd [2] [µM] | Binder
1 | 370 |  | Ac-TISNPPPLISSAK-NH2 [NCOR2 peptide (human NCOR2 residues 1101-1113)]
2 | 680 | 370 | Ac-LNQPPPPLIRPAN-NH2 [RCOR3_3 peptide (human RCOR3 residues 448-460)]
3 | 820 |  | Ac-TLNQPPPLLRPTL-NH2 [RCOR3_1 peptide (human RCOR3 residues 410-422)]
